Laboratory results from the supplement of paper PMC10567573.

B1: FBXO39 (parent)
chain: RVFKARIYTNRYETNEEDKTLQEI

Variants of: B1
Assay: protein stability index of a GFP-peptide fusion (GPS, HEK-293T) (PSI 1-6); higher = more stable
Conditions: c terminus: a fixed tail appended
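Note: lentivirally expressed fusions sorted by FACS into six bins by GFP to DsRed ratio, PSI derived from sequencing read proportions per bin multiplied by bin number.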

Variant	protein stability index
RVFKARIYTARYETNEEDKTLQEI [N10A]	2.31
RVFKARIYTDRYETNEEDKTLQEI [N10D]	2.61
RVFKARIYTQRYETNEEDKTLQEI [N10Q]	3.36
RVFKARIYTFRYETNEEDKTLQEI [N10F]	1.93
RVFKARIYTKRYETNEEDKTLQEI [N10K]	3.01
RVFKARIYINRYETNEEDKTLQEI [T9I]	2.21
RVFKARIYENRYETNEEDKTLQEI [T9E]	3.24
RVFKARIYDNRYETNEEDKTLQEI [T9D]	3.38
RVFKARIYFNRYETNEEDKTLQEI [T9F]	1.82
RVFKARIYQNRYETNEEDKTLQEI [T9Q]	2.73
RVFKARIYPNRYETNEEDKTLQEI [T9P]	3.15
RVFKARIYNNRYETNEEDKTLQEI [T9N]	2.87
RVFKARIYMNRYETNEEDKTLQEI [T9M]	3.24
RVFKARIYANRYETNEEDKTLQEI [T9A]	3.18
RVFKARIYHNRYETNEEDKTLQEI [T9H]	2.47
RVFKARIYKNRYETNEEDKTLQEI [T9K]	3.08
RVFKARIYLNRYETNEEDKTLQEI [T9L]	2.54
RVFKARIYYNRYETNEEDKTLQEI [T9Y]	2.16
RVFKARIYGNRYETNEEDKTLQEI [T9G]	2.49
RVFKARIYRNRYETNEEDKTLQEI [T9R]	3.04
RVFKARIYVNRYETNEEDKTLQEI [T9V]	2.32
RVFKARIYSNRYETNEEDKTLQEI [T9S]	2.18
RVFKARIYWNRYETNEEDKTLQEI [T9W]	1.92
YVFKARIYTNRYETNEEDKTLQEI [R1Y]	2.14

Variant	protein stability index
GVFKARIYTNRYETNEEDKTLQEI [R1G]	3.42
LVFKARIYTNRYETNEEDKTLQEI [R1L]	2.74
CVFKARIYTNRYETNEEDKTLQEI [R1C]	1.7
SVFKARIYTNRYETNEEDKTLQEI [R1S]	2.72
KVFKARIYTNRYETNEEDKTLQEI [R1K]	2.6
MVFKARIYTNRYETNEEDKTLQEI [R1M]	3.34
DVFKARIYTNRYETNEEDKTLQEI [R1D]	3.95
QVFKARIYTNRYETNEEDKTLQEI [R1Q]	3.74
AVFKARIYTNRYETNEEDKTLQEI [R1A]	2.84
HVFKARIYTNRYETNEEDKTLQEI [R1H]	3.35
TVFKARIYTNRYETNEEDKTLQEI [R1T]	2.72
VVFKARIYTNRYETNEEDKTLQEI [R1V]	1.66
WVFKARIYTNRYETNEEDKTLQEI [R1W]	2.08
IVFKARIYTNRYETNEEDKTLQEI [R1I]	3.15
PVFKARIYTNRYETNEEDKTLQEI [R1P]	4.26
FVFKARIYTNRYETNEEDKTLQEI [R1F]	1.66
RLFKARIYTNRYETNEEDKTLQEI [V2L]	3.19
RDFKARIYTNRYETNEEDKTLQEI [V2D]	4.76
RQFKARIYTNRYETNEEDKTLQEI [V2Q]	3.37
REFKARIYTNRYETNEEDKTLQEI [V2E]	4.36
RIFKARIYTNRYETNEEDKTLQEI [V2I]	2.51
RMFKARIYTNRYETNEEDKTLQEI [V2M]	3.98
RKFKARIYTNRYETNEEDKTLQEI [V2K]	3.36
RCFKARIYTNRYETNEEDKTLQEI [V2C]	2.87

Variant	protein stability index
RWFKARIYTNRYETNEEDKTLQEI [V2W]	2.45
RFFKARIYTNRYETNEEDKTLQEI [V2F]	3.18
RTFKARIYTNRYETNEEDKTLQEI [V2T]	2.89
RHFKARIYTNRYETNEEDKTLQEI [V2H]	3.85
RRFKARIYTNRYETNEEDKTLQEI [V2R]	4.24
RNFKARIYTNRYETNEEDKTLQEI [V2N]	4.09
RSFKARIYTNRYETNEEDKTLQEI [V2S]	4.22
RPFKARIYTNRYETNEEDKTLQEI [V2P]	4.56
RGFKARIYTNRYETNEEDKTLQEI [V2G]	3.69
RVDKARIYTNRYETNEEDKTLQEI [F3D]	5.46
RVRKARIYTNRYETNEEDKTLQEI [F3R]	4.71
RVSKARIYTNRYETNEEDKTLQEI [F3S]	4.54
RVPKARIYTNRYETNEEDKTLQEI [F3P]	4.55
RVTKARIYTNRYETNEEDKTLQEI [F3T]	4.88
RVGKARIYTNRYETNEEDKTLQEI [F3G]	4.12
RVVKARIYTNRYETNEEDKTLQEI [F3V]	4.15
RVLKARIYTNRYETNEEDKTLQEI [F3L]	3.05
RVIKARIYTNRYETNEEDKTLQEI [F3I]	4.61
RVYKARIYTNRYETNEEDKTLQEI [F3Y]	2.59
RVWKARIYTNRYETNEEDKTLQEI [F3W]	2.65
RVHKARIYTNRYETNEEDKTLQEI [F3H]	4.63
RVQKARIYTNRYETNEEDKTLQEI [F3Q]	4.59
RVAKARIYTNRYETNEEDKTLQEI [F3A]	4.19
RVKKARIYTNRYETNEEDKTLQEI [F3K]	4.32

Variant	protein stability index
RVMKARIYTNRYETNEEDKTLQEI [F3M]	4.41
RVNKARIYTNRYETNEEDKTLQEI [F3N]	4.76
RVCKARIYTNRYETNEEDKTLQEI [F3C]	2.82
RVEKARIYTNRYETNEEDKTLQEI [F3E]	5.23
RVFKACIYTNRYETNEEDKTLQEI [R6C]	2.77
RVFKAFIYTNRYETNEEDKTLQEI [R6F]	1.41
RVFKAIIYTNRYETNEEDKTLQEI [R6I]	1.9
RVFKAGIYTNRYETNEEDKTLQEI [R6G]	3.7
RVFKAHIYTNRYETNEEDKTLQEI [R6H]	2.83
RVFKANIYTNRYETNEEDKTLQEI [R6N]	3.72
RVFKATIYTNRYETNEEDKTLQEI [R6T]	3.79
RVFKAWIYTNRYETNEEDKTLQEI [R6W]	1.92
RVFKAPIYTNRYETNEEDKTLQEI [R6P]	4.08
RVFKAQIYTNRYETNEEDKTLQEI [R6Q]	3.71
RVFKADIYTNRYETNEEDKTLQEI [R6D]	4.04
RVFKAVIYTNRYETNEEDKTLQEI [R6V]	2.21
RVFKAKIYTNRYETNEEDKTLQEI [R6K]	3.01
RVFKAAIYTNRYETNEEDKTLQEI [R6A]	3.66
RVFKAMIYTNRYETNEEDKTLQEI [R6M]	1.99
RVFKAYIYTNRYETNEEDKTLQEI [R6Y]	2.62
RVFKAEIYTNRYETNEEDKTLQEI [R6E]	4.25
RVFKASIYTNRYETNEEDKTLQEI [R6S]	3.37
